This is an account of results in PMC7531515.

Series [1] addresses roledumab (human). The series can be described thus: SEC + native MS.
Series [2] concerns the target roledumab (human). The series is described as follows: native MS.
Series [3] concerns the target F(ab’)2 fragment of roledumab (IdeS digestion) (human). The series can be described thus: SEC + native MS.
The target is the same in series [4]. The series can be described thus: native MS.
Series [5] deals with Fab fragment of roledumab (IgdE digestion) (human). The series is described as follows: SEC + native MS.
For series [6] the target is unchanged. The series is described as follows: native MS.

A word on the stoichiometry N: it is the number of molecules, sites or subunits per partner or assembly.

B1: roledumab (antibody, V domains shown)
VH: QVQLVESGGGVVQPGRSLRLSCTASGFTFKNYAMHWVRQAPAKGLEWVATISYDGRNIQYADSVKGRFTFSRDNSQDTLYLQLNSLRPEDTAVYYCARPVRSRWLQLGLEDAFHIWGQGTMVTVSS
VL: AIRMTQSPSSFSASTGDRVTITCRASQDIRNYVAWYQQKSGKAPKFLIYAASTLQSGVPSRFSGSGSGTDFTLTINSLQSEDFATYYCQQYYNSPPTFGQGTRVEIT
For the molecule B1, the “percent HMW species in the isolated HMW fraction” value in “SEC” is 85% of HMW species (peak 2). In the series with roledumab (human) [1], the relative abundance of dimer peak 1 (UV) stood at 46%, the relative abundance of dimer peak 2 (UV) is 32%, the relative abundance of dimer peak 3 (UV) amounted to 13% and the stoichiometry N is 2. In the series with roledumab (human) [2], this molecule displayed a relative abundance of dimer peak 2 (UV) of 20%, a relative abundance of dimer peak 3 (UV) of 13%, a relative abundance of dimer peak 4 (UV) of 65% and a stoichiometry N of 2.

B2: F(ab’)2 fragment of roledumab (IdeS digestion) (domain or fragment)
VH: B1 VH
VL: B1 VL
As for B2, in series [3], the relative abundance of F(ab’)2 dimer peak 1 (UV) came out at 32%, the relative abundance of F(ab’)2 dimer peak 2 (UV) was 16%, the relative abundance of F(ab’)2 dimer peak 3 (UV) was 8% and the stoichiometry N stood at 2. Further, in series [4], the relative abundance of F(ab’)2 dimer (UV) turned out to be 54% and the stoichiometry N stood at 2.

B3: Fab fragment of roledumab (IgdE digestion) (Fab, V domains shown)
VH: B1 VH
VL: B1 VL
For B3, the stoichiometry N in series [5] and in series [6] was 2 throughout. The molecule also returned a relative abundance of Fab dimers (UV) in series [6] of 10%.
